Reference: paper PMC7980224

Key:
Assay in all cases: EMSA
Details in all cases: apparent Kd; RNA of Fig S1f not named, assumed U1; EMSA: 10 nM labeled RNA, 2-fold protein dilutions up to 10 uM, 2 h on ice, 1% TBE-agarose, 50 V, 4 C; binding buffer not stated (protein elution buffer 150 mM …)
INTS5;INTS8 = tested on: INTS5;INTS8
[1] = tested on: INTS4;INTS9;INTS11 (human?;human?;human?)
[2] = tested on: INTS10;INTS13;INTS14 (human?;human?;human?)

**Q.** How did the Kd (INTS5;INTS8) turn out when U1 pre-snRNA stem-loop 4 with 3' box was run?
**A.** Its Kd is 3100 nM.

**Q.** What about the Kd [1] of the same substance?
**A.** The Kd was 820 nM.

**Q.** What about the Kd [2] of the same substance?
**A.** The Kd was 780 nM.
